Source: US8574882B2, “Thermostable 1,5-anhydroglucitol dehydrogenase, and method for measurement of 1,5-anhydroglucitol by using the same” (Nippon Kayaku Kabushiki Kaisha, priority 2008, dated 2013)

Experiments:
[1] = tested on: 1,5-AG dehydrogenase (Ver. 0); experiment: Substrate specificity of parent strain-derived 1,5-AG dehydrogenase; type: biochemical, Pseudomonas sp. NK-85001; settings: activity for 1,5-AG as 100%; Ver. 0, 40%-saturated ammonium sulfate precipitate fraction
Experimental: (§1) The components other than the crude enzyme solution are mixed and kept at 37° C. for 10 minutes. Then, the crude enzyme solution is added to the reaction solution to initiate reaction. Decrease in absorbance at 600 nm for 1 minute with the temperature kept at 37° C. is determined.
A precipitate fraction of 40%-saturated ammonium sulfate was collected by centrifugation and dissolved in a 50 mM sodium phosphate buffer, pH 7.5.

[2] = 1,5-AG dehydrogenase activity determination of crude enzyme solution (L-sorbose, DCIP, 1-m-PMS, decrease in absorbance at 600 nm); type: biochemical
Experimental: The E. coli JM109 strains transformed with the pTrc-PS15DH vectors confirmed in the paragraph (I) to have the insert fragment were inoculated to 3 mL of an LB medium containing 100 μg/mL ampicillin and cultured at 28° C. for 14 hours. Of this culture solution, a 0.2 mL aliquot was inoculated to 10 mL of an LB medium (containing 100 μg/mL ampicillin). Approximately 3 hours later, the rise of OD600 of the culture solution to 0.4 to 0.7 was confirmed, and 1,5-AG dehydrogenase expression in E. coli was then induced by the addition of 0.1 M IPTG (final concentration: 0.1 mM) to the medium. This culture solution was further cultured overnight at 28° C. and centrifuged at 10000×g for 5 minutes to precipitate cells. The supernatant was removed, and the pellet was then washed twice with a 0.85% aqueous NaCl solution. Cells were precipitated by centrifugation. Then, the microbial cells were suspended in 1 mL of a 50 mM sodium phosphate buffer, pH 7.5. Triton X-100 was added thereto at a concentration of 0.25%, and the microbial cells were disrupted using a bead impact-type cell disrupter MINI-BEAD BEATER (30 seconds×4, manufactured by Central Scientific Commerce, Inc.) while cooled in ice. After centrifugation at 20000×g for 10 minutes, the supernatant was examined as a crude enzyme solution for its 1,5-AG dehydrogenase activity. The composition of the reaction solution is as described below. Since the 1,5-AG dehydrogenase also reacts with L-sorbose as its substrate, L-sorbose was used for convenience instead of 1,5-AG in the enzymatic activity determination.
Composition of Reaction Solution:
as §1
The enzymatic activity can be determined according to the following equation: Enzymatic activity (U/mL)=(Δ600/min×0.6 (mL)×dilution ratio of crude enzyme solution)/(16.3×0.01 (mL)).
(§2) The E. coli JM109 containing the gene encoding each thermostable 1,5-AG dehydrogenase obtained in the paragraphs to [4] of EXAMPLE 2 was transplanted to 10 mL of an LB liquid medium containing 50 μg/mL ampicillin and 0.1 mM IPTG and shake-cultured at 30° C. for 16 hours. 10 mL of the shake-culture solution was centrifuged at 10000 rpm for 5 minutes. The culture supernatant was removed, and the pellet was then washed twice with a 0.85% aqueous NaCl solution. These microbial cells were suspended in 1 mL of a 50 mM sodium phosphate buffer (pH 7.5) containing 0.25% Triton X-100. The microbial cells were disrupted using a bead impact-type cell disrupter MINI-BEAD BEATER (30 seconds×4, manufactured by Central Scientific Commerce, Inc.) while cooled in ice. After centrifugation at 15000 rpm for 10 minutes, the supernatant was used as a crude enzyme solution. When the crude enzyme solution was heat-treated, the treatment was performed for 10 minutes in a water bath of 45° C., 50° C., 55° C. or 60° C.
(§3) The enzymatic activity of the 1,5-AG dehydrogenase was calculated by measurement by the same approach as that described in the paragraph (J) of EXAMPLE 1.
(§4) A specific activity that represents the enzymatic activity of the 1,5-AG dehydrogenase per mg of the crude enzyme solution was calculated according to the following equation: Specific activity (U/mg)=enzymatic activity (U/mL)/protein concentration of crude enzyme solution (mg/mL). Moreover, the rate of residual activity was calculated according to the following equation: Rate of residual activity (%)=(specific activity of crude enzyme solution after heat treatment/specific activity of crude enzyme solution before heat treatment)×100.
The 1,5-AG dehydrogenase activity was determined based on the method described in EXAMPLE 1, and its specific activity was determined according to the equation described in EXAMPLE 3.

[3] = Stability of thermostable 1,5-AG dehydrogenase at heat treatment temperature (rate of residual activity); type: physicochemical; settings: crude enzyme solution, water bath 45° C., 10 minutes
Experimental: as §2, §3, §4

[4] = crude enzyme solution, L-sorbose as substrate, 37° C.

| Molecule | Relative activity [1] [%] | Specific activity [2, 4] [U/mg] | Rate of residual activity after 10-minute treatment at 45° C. [3] [%] | further results |
| --- | --- | --- | --- | --- |
| OC[C@H]1O[C@H](O[C@H]2[C@H](O)[C@@H](O)C(O)O[C@@H]2CO)[C@H](O)[C@@H](O)[C@@H]1O (mixture of isomers) [Maltose] | 0.2 | – | – | – |
| OC[C@H]1OC[C@H](O)[C@@H](O)[C@@H]1O [1,5-AG, 1,5-anhydroglucitol] | 100 | – | – | – |
| O=C[C@H](O)[C@@H](O)[C@@H](O)[C@H](O)CO [Galactose] | 0 | – | – | – |
| O=C(CO)[C@@H](O)[C@H](O)[C@@H](O)CO [L-sorbose] | 54 | – | – | – |
| OC[C@@H](O)[C@H](O)[C@@H](O)CO [Xylitol] | 0 | – | – | – |
| Ver. 2.0: thermostable 1,5-AG dehydrogenase, SEQ ID NO: 22; net vs SEQ ID NO: 4: Q6H, A37T, P50Q (protein, Mutated 1,5-anhydroglucitol dehydrogenase gene) MEFGGHPDIVIIGSGIGGASIAAGLSASGADILILETGESLPDRPENRDQHAIFQRGFFRPKEFWYETDGTPFNPGNYYNVGGNSKFYGAVLVRYRREDFEELAHLEGVSPAWPFAYDELEPWYCKAEELFQVRGELGDDPTEPYHSKPYSYPAIRDESPIADLRARLKKAGLHPASLPLGVDIERWLAKAKTPWDAHPNSNDGKMDAETCPLALALKHPNVGLETSARVTKLETGPDGKTIVAVHYVKNGEALVLRPKLVILSAGAVQSAALLLRSGLANRSDQVGRNFMNHNASAVIGFDPRYRNDSVYQKTFGFNDYYLSDGAGGPPLGNVQLLGRVSGAILKSNMRQVPEWFLNRIAGHTIDFYAMSEDLPSPESRVSVDGDRIILHWVRSNWKAHLMLVDKLKSALRAAGFPVVLSRAFDRRTPSHQCGTVRIGDNPATAPLDPYCRAYDHPNLYVVDASFLPTSAAVNPALTIAAQALRVADHLNREVLA | – | 1.4 | 31.0 | Specific activity ([2]; purification step: CFE (cell-free extracts)): 4.39 U/mg; Specific activity ([2]; purification step: ammonium sulfate precipitation): 13.8 U/mg; Specific activity ([2]; purification step: desalting and concentration): 13.5 U/mg; Specific activity ([2]; purification step: weak anion-exchange chromatography (DEAE FF)): 13.5 U/mg |
| Ver. 3.0: thermostable 1,5-AG dehydrogenase, protein 19); net vs SEQ ID NO: 4: A37T, P50Q, G362R (protein, Pseudomonas sp. NK-85001) MEFGGQPDIVIIGSGIGGASIAAGLSASGADILILETGESLPDRPENRDQHAIFQRGFFRPKEFWYETDGTPFNPGNYYNVGGNSKFYGAVLVRYRREDFEELAHLEGVSPAWPFAYDELEPWYCKAEELFQVRGELGDDPTEPYHSKPYSYPAIRDESPIADLRARLKKAGLHPASLPLGVDIERWLAKAKTPWDAHPNSNDGKMDAETCPLALALKHPNVGLETSARVTKLETGPDGKTIVAVHYVKNGEALVLRPKLVILSAGAVQSAALLLRSGLANRSDQVGRNFMNHNASAVIGFDPRYRNDSVYQKTFGFNDYYLSDGAGGPPLGNVQLLGRVSGAILKSNMRQVPEWFLNRIARHTIDFYAMSEDLPSPESRVSVDGDRIILHWVRSNWKAHLMLVDKLKSALRAAGFPVVLSRAFDRRTPSHQCGTVRIGDNPATAPLDPYCRAYDHPNLYVVDASFLPTSAAVNPALTIAAQALRVADHLNREVLA | – | 2.8 | 40.0 | – |
| Ver. 3.1: thermostable 1,5-AG dehydrogenase, protein 18); net vs SEQ ID NO: 4: A37T, P50Q, L164M (protein, Pseudomonas sp. NK-85001) MEFGGQPDIVIIGSGIGGASIAAGLSASGADILILETGESLPDRPENRDQHAIFQRGFFRPKEFWYETDGTPFNPGNYYNVGGNSKFYGAVLVRYRREDFEELAHLEGVSPAWPFAYDELEPWYCKAEELFQVRGELGDDPTEPYHSKPYSYPAIRDESPIADMRARLKKAGLHPASLPLGVDIERWLAKAKTPWDAHPNSNDGKMDAETCPLALALKHPNVGLETSARVTKLETGPDGKTIVAVHYVKNGEALVLRPKLVILSAGAVQSAALLLRSGLANRSDQVGRNFMNHNASAVIGFDPRYRNDSVYQKTFGFNDYYLSDGAGGPPLGNVQLLGRVSGAILKSNMRQVPEWFLNRIAGHTIDFYAMSEDLPSPESRVSVDGDRIILHWVRSNWKAHLMLVDKLKSALRAAGFPVVLSRAFDRRTPSHQCGTVRIGDNPATAPLDPYCRAYDHPNLYVVDASFLPTSAAVNPALTIAAQALRVADHLNREVLA | – | 1.2 | 54.0 | – |
